Results on two molecules are retold here after US20160311886A1, “Constructs Binding to Phosphatidylserine and Their Use in Disease Treatment and Imaging” (Board of Regents, The University of Texas System, priority 2005, published 2016).

In assay [1] the test system is IL-1α-stimulated bEnd.3 cells. The assay is described as follows: Coaguligand-induced Factor Xa formation, chromogenic assay. It is filed as cell-based, mouse. Particulars: 10 μg per ml Annexin V. The procedure:
The ability of Annexin V to affect Factor Xa formation induced by coaguligand was determined by a chromogenic assay. IL-1α-stimulated bEnd.3 cells were incubated with anti-VCAM-·tTF and permeabilized by saponin. Annexin V was added at concentrations ranging from 0.1 to 10 μg/ml and cells were incubated for 30 min. before addition of diluted Proplex T. The amount of Factor Xa generated in the presence or absence of Annexin V was determined. Each treatment was performed in duplicate and repeated at least twice.

For the next assay, the system named is L540 Hodgkin tumors. The assay is described as follows: Annexin V inhibition of coaguligand-induced thrombosis in vivo. More on the design: species or system mouse. The procedure: The ability of Annexin V to inhibit coaguligand-induced thrombosis in vivo was examined in L540 Hodgkin-bearing SCID mice. Tumors were grown in mice and two mice per group (tumor size 0.5 cm in diameter) were injected intravenously via the tail vein with one of the following reagents: a) saline; b) 100 μg of Annexin V; c) 40 μg of anti-VCAM-1·tTF; d) 100 μg of Annexin V followed 2 hours later by 40 μg of anti-VCAM-1·tTF.
Four hours after the last injection mice were anesthetized and perfused with heparinized saline. Tumors were removed, fixed with 4% formalin, paraffin-embedded and stained with hematoxylene-eosin. The number of thrombosed and non-thrombosed blood vessels was counted and the percentage of thrombosis was calculated.

A further assay concerns MDA-MB-435 breast tumors. Put plainly: 3G4 and chimeric 3G4 tumor treatment. It is filed as in vivo, mouse. Particulars: MD-MBA-435s; IP 800 μg day 15, 200 μg every two to three days, 400 μg day 35. The procedure: Tumors were also established using MD-MBA-435s cells and treated as described above. […] The treatment of large L540 tumors, MDA-MB-231 and MD-MBA-435s tumor cells for 60 days was also effective. The antibodies caused tumor vascular injury, thrombosis and necrosis and retarded tumor growth, with no evidence of toxicity.
MD-MBA-435s lucerifase cells were obtained from Dr. Angels Sierra Jimenez, Barcelona, Spain and were grown in 10% DMEM. Mice were injected with tumor cells as described as above, and at 2 weeks post injection, the tumors were measured and the volume recorded. […] Treatment was initiated by IP injection (800 μg) at day 15 and continued with injections of 200 μg every two to three days until the final injection of 400 μg at day 35. Tumor volumes and mouse body weights were measured on injection days. Mice were sacrificed and perfused with saline for 12 minutes. The organs and tumor were removed, snap-frozen in liquid nitrogen and the tumor sectioned for immunohistochemistical analysis.
Groups of 8-10 female SCID mice were injected subcutaneously with 2×10^7 L540 cells or orthotopically with 1×10^7 MDA-MB-435 or MDA-MB-231 cells. BALB/c mice were injected subcutaneously with 1×10^6 Meth A cells. […] Animals were monitored three times a week for tumor size and body weight. […]

Assay [2] has as its system orthotopic MDA-MB-435 and MDA-MB-231 tumors. Put plainly: Macrophage infiltration during 3G4 tumor treatment. It is filed as in vivo, mouse. Conditions: 100 μg i.p. three times a week for 2-3 weeks. The method, then: Groups of 8-10 female SCID mice were injected subcutaneously with 2×10^7 L540 cells or orthotopically with 1×10^7 MDA-MB-435 or MDA-MB-231 cells. BALB/c mice were injected subcutaneously with 1×10^6 Meth A cells. Tumors were allowed to grow to an average diameter of 0.8-1 cm (L540), 0.6-0.7 cm (MDA-MB-435), 0.5-0.7 cm (MDA-MB-231), or <0.1 cm (Meth A). […] Animals were monitored three times a week for tumor size and body weight. Mice were sacrificed when tumors in control mice reached a diameter of 1.5-2 cm.

The subject of another assay is WiDr (colon carcinoma). Put plainly: WiDr colon carcinoma model. It is filed as in vivo, mouse. Particulars: 100 μg 3×/week from day 5; preliminary study. The method, then:
Treatment was started on day 5, when the tumors were small (10 mice per group). 100 μg of each antibody was injected 3×/week and tumor growth monitored.

Assay [3] relates to drug-resistant breast tumors. The assay is described as follows: 3G4 and cisplatin against drug-resistant breast tumors. In kind it is in vivo, mouse. Conditions: treated after day 20. An excerpt:
Mice were inoculated with drug-resistant breast tumors and treated after day 20.

A further assay concerns hβ2GPI domains. The assay is described as follows: ELISA on recombinant hβ2GPI domain constructs. In kind it is binding, human. Particulars: constructs I-V, II-V, III-V, IV-V. The method, then: The assay was performed as described above with the following modifications. hβ2GPI, nicked hβ2GPI, or recombinant hβ2GPI peptides were coated on 96-well Immunlon 2HB microtiter plates overnight at a concentration of 10 μg/ml. Plates were then blocked in 1% OVA for 1 hr. at room temperature. […] Plates were incubated for 1 hr. at 37° C. and antibody binding was detected. All ELISA studies were performed at least three times.
β2GPI has five domains, of which the fifth domain is responsible for binding to anionic phospholipids. […] These domain constructs were made by serial truncations from the N-terminus, and so lack each of the N-terminal domains in turn, as follows: recombinant full-length hβ2GPI contains domains I-V; hβ2GPI from which domain I has been deleted contains domains II-V; hβ2GPI from which domains I and II have been deleted contains domains III-V; hβ2GPI from which domains I, II and III have been deleted contains domains IV-V; and hββ2GPI from which domains I, II, III and IV have been deleted contains domain V only.
For orientation: ELISA stands for enzyme-linked immunosorbent assay.

Turning to “Annexin V: High affinity PS binding ligand; natural ligand binding anionic phospholipids and PE”, the “inhibition of factor Xa production” value in assay [1] stood at 58%. The “coaguligand-induced intravascular thrombosis and changes in tumor cell morphology” value in the assay with L540 Hodgkin tumors (100 μg Annexin V 2 hours before 40 μg coaguligand) was “completely abolished”. Also, the tumor morphology entry with L540 Hodgkin tumors (100 μg Annexin V alone) is “did not alter tumor morphology”.

B1: 3G4: Mouse IgG3 kappa monoclonal antibody to PS and anionic phospholipids; binding mediated by β2-glycoprotein I (antibody, listed as Mus musculus)
VH: MGWTWIFILILSVTTGVHSEVQLQQSGPELEKPGASVKLSCKASGYSFTGYNMNWVKQSHGKSLEWIGHIDPYYGDTSYNQKFRGKATLTVDKSSSTAYMQLKSLTSEDSAVYYCVKGGYYGHWYFDVWGAGTTVTVSSATTTAPSVYPLVP
VL: MDMRAPAQILGFLLLLFPGTRCDIQMTQSPSSLSASLGERVSLTCRASQDIGSSLNWLQQGPDGTIKRLIYATSSLDSGVPKRFSGSRSGSDYSLTISSLESEDFVDYYCLQYVSSPPTFGAGTKLELKRADAAPTVFIFGRIP
For the molecule B1, the “tumor growth vs control” value with MDA-MB-435 breast tumors is “effectively retarded tumor growth”. The “leukocyte binding and infiltration” value in assay [2] was “caused mononuclear leukocytes to bind to the tumor vascular endothelium and infiltrate into the tumor interstitium”. Also, the tumor growth result in the assay with WiDr (colon carcinoma) is on record as “slowed tumor growth to essentially the same degree”. Besides, the anti-tumor response entry in assay [3] is listed as “tumor growth was slowed”. Also, the β2GPI domain recognized result in the assay with hβ2GPI domains is “binds to β2GPI at domain II”.
